Legend:
[1] = tested on: T1, gfTP1 transposase (Tgf2 transposase, 686 aa, recombinant 720 aa) (Carassius auratus); experiment: cell_activity; conditions: genomic integration rate in one-year-old blunt snout bream (35/77) vs 10% with donor plasmid only; 8-bp direct repeats at insertion sites
T1 sequence: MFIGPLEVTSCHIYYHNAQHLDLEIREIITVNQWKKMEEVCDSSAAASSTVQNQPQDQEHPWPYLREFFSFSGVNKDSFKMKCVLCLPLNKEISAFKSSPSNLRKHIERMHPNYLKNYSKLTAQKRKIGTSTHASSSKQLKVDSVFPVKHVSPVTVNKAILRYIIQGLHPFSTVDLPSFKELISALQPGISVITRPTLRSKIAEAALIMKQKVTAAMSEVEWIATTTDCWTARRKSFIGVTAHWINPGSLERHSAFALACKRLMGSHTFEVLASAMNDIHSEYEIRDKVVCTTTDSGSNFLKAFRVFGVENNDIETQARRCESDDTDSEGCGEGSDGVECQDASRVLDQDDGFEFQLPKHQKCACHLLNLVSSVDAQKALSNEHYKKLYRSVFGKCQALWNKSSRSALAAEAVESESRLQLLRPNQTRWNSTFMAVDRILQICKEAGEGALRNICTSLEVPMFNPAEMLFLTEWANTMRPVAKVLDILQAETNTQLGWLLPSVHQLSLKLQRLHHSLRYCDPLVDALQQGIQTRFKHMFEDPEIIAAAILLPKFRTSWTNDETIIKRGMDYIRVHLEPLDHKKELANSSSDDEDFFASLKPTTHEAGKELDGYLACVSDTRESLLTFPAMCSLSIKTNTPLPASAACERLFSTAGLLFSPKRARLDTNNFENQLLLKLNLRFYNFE

[2] = molecular target: T2, gfTP1 transposase (Tgf2 transposase, 686 aa, recombinant 720 aa) (Carassius auratus); experiment: EMSA; 25 C, 0.5-1 h; 1x protein shifts probe, 10x gives slower complex (oligomer); control cold probe no signal; conditions: tags: N-terminal 34 aa His6-containing tag from pET-28a, E. coli Rosetta 1(DE3); label: biotin
T2 chain: T1 sequence
Description: The 50 by sequences of left and right ends of goldfish Tgf2 transposon labeled by biotin were used as probes. The DNA binding activity was verified by EMSA, using non-denaturing polyacrylamide gel electrophoresis at 80 V for 1.0 h. Lane 1: biotin-labeled probes based on left (or right) end; Lane 2: the supernatant of cells without IPTG induction; Lane 3: co-incubation complex of biotin-labeled cold probes for control and the purified recombinant goldfish gfTP1 transposase; Lane 4: co-incubation complex of biotin-labeled probes based on Tgf2 left (or right) end and the purified 1× recombinant goldfish gfTP1 transposase; Lane 5: co-incubation complex of biotin-labeled probes based on Tgf2 left (or right) end and the purified 10× recombinant goldfish gfTP1 transposase.

In the case of donor plasmid pTgf2-zfβ-actin-eGFP, the activity [1] is reported as 45%.

B1: Tgf2 right end 50 bp probe (dsDNA)
DNA 1: CAGAGGTGTAAAAGTACTAAAAATATTTACTAAAGTGAAAGTACAAGTAT
DNA 2: ATACTTGTACTTTCACTTTAGTAAATATTTTTAGTACTTTTACACCTCTG
B1: binds [2].

B2: Tgf2 left end 50 bp probe (dsDNA)
DNA 1: CAGAGGTGTAAAAGTACTTAAGTAATTTTACTTGATTACTGTACTTAAGT
DNA 2: ACTTAAGTACAGTAATCAAGTAAAATTACTTAAGTACTTTTACACCTCTG
B2: binds [2].

From patent US20160215299, “EXPRESSION METHOD OF ACTIVE GOLDFISH TGF2 TRANSPOSON RECOMBINANT TRANSPOSASE PROTEIN” (Shanghai Ocean University, published 2016)
